From PMC3182920

B1: human nectin-1 ectodomain, nectin-1(346t), Q15223-1 31-346 (receptor)
chain: QVVQVNDSMYGFIGTDVVLHCSFANPLPSVKITQVTWQKSTNGSKQNVAIYNPSMGVSVLAPYRERVEFLRPSFTDGTIRLSRLELEDEGVYICEFATFPTGNRESQLNLTVMAKPTNWIEGTQAVLRAKKGQDDKVLVATCTSANGKPPSVVSWETRLKGEAEYQEIRNPNGTVTVISRYRLVPSREAHQQSLACIVNYHMDRFKESLTLNVQYEPEVTIEGFDGNWYLQRMDVKLTCKADANPPATEYHWTTLNGSLPKGVEAQNRTLFFKGPINYSLAGTYICEATNPIGTRSGQVEVNITEFPYTPSPPEHG

Legend:
[1] = molecular target: human nectin-1 ectodomain, nectin-1(346t) (human) (UniProt Q15223); assay: SEC-MALS; SEC combined with multi-angle light scattering, purified proteins in solution; data not shown
anti-nectin-1 Ig CK6 = assay: ELISA; conditions: sub-panel CK6 (80-105); immobilized antibody captures N1V-MBP; detection with anti-MBP-HRP; parent: est. 100; read off a plot
MAb CK41 = assay: ELISA; conditions: sub-panel CK41 (conf); immobilized antibody captures N1V-MBP; detection with anti-MBP-HRP; parent: est. 100; read off a plot
[2] = molecular target: HSV-1 glycoprotein D ectodomain truncated at residue 306 (gD306t); assay: ELISA; conditions: read at the highest gD(306t) concentration, about 300 µg/ml; N1V-MBP immobilized; parent: est. 1.5; read off a plot
[3] = molecular target: T1, human nectin-1 ectodomain, nectin-1(346t) (human), Q15223; assay: SEC-MALS; SEC combined with multi-angle light scattering, purified proteins in solution; data not shown; conditions: remark: other sources report otherwise
T1 chain: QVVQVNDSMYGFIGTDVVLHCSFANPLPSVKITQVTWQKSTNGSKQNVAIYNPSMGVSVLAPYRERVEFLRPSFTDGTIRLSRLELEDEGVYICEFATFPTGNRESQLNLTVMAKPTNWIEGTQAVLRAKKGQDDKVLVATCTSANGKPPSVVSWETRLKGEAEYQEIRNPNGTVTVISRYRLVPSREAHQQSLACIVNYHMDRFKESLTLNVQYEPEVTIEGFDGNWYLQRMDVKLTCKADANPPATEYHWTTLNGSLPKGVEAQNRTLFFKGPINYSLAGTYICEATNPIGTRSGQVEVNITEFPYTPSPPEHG

Molecule	stoichiometry N [1]	percent of parent (% wt detection) (anti-nectin-1 Ig CK6)	percent of parent (% wt detection) (MAb CK41)	response [2] [OD405nm]	stoichiometry N [3]
HSV-1 KOS glycoprotein D ectodomain truncated at residue 285 (gD285t) (domain or fragment)	1				
nectin-1 V-domain fused to maltose binding protein (N1V-MBP), wild type (from UniProt Q15223-1) F129S		93	7	0.2	
nectin-1 V-domain fused to maltose binding protein (N1V-MBP), wild type (from UniProt Q15223-1) F129W		91	55	1.3	
nectin-1 V-domain fused to maltose binding protein (N1V-MBP), wild type (from UniProt Q15223-1) N82Y		68		0.12	
nectin-1 V-domain fused to maltose binding protein (N1V-MBP), wild type (from UniProt Q15223-1) S84R		90	120	1.3	
nectin-1 V-domain fused to maltose binding protein (N1V-MBP), wild type (from UniProt Q15223-1) S84Y		80	31	0.55	
nectin-1 V-domain fused to maltose binding protein (N1V-MBP), wild type (from UniProt Q15223-1) T66Q		110	71	1.4	
B1					2
